# Laboratory results reported in the supplement of paper PMC9112550, “Optimization of the antimicrobial peptide Bac7 by deep mutational scanning” (BMC Biology, 2022).
# System: Escherichia coli TOP10
# Assay: shrunken log2 fold change of peptide-encoding DNA abundance (4.5 h post-induction vs induction); higher = less antimicrobial activity (less host growth inhibition)
# Conditions: time post-induction: 4.5 h; library: site-saturation at positions 5, 18, 19, 20
# 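Also: peptides expressed intracellularly from a pBAD plasmid library in pooled LB shake-flask culture, induced with 0.3% L-arabinose, DNA abundance read by NGS, three biological replicates, DESeq2 with apeglm shrinkage.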
row,Sequence,shrunken log2 fold change
1,RRIRFRPPRLPRPRPRPSFEPRP,-0.532
2,RRIRYRPPRLPRPRPRPSAYPRP,-0.854
3,RRIRCRPPRLPRPRPRPIFDPRP,-0.191
4,RRIRLRPPRLPRPRPRPSKAPRP,-0.0252
5,RRIRNRPPRLPRPRPRPFCNPRP,-0.126
6,RRIRMRPPRLPRPRPRPTLIPRP,0.00162
7,RRIRGRPPRLPRPRPRPSCYPRP,-0.0977
8,RRIRSRPPRLPRPRPRPKAIPRP,0.119
9,RRIRSRPPRLPRPRPRPGCAPRP,0.46
10,RRIRLRPPRLPRPRPRPIHPPRP,-0.168
11,RRIRHRPPRLPRPRPRPCWNPRP,-0.151
12,RRIRKRPPRLPRPRPRPDTMPRP,0.224
13,RRIRYRPPRLPRPRPRPIVQPRP,-0.121
14,RRIRNRPPRLPRPRPRPLDDPRP,-0.0578
15,RRIRCRPPRLPRPRPRPCNGPRP,-0.00386
16,RRIRPRPPRLPRPRPRPNGHPRP,-0.0534
17,RRIRSRPPRLPRPRPRPALEPRP,0.407
18,RRIRHRPPRLPRPRPRPTINPRP,-0.459
19,RRIRPRPPRLPRPRPRPGGHPRP,0.372
20,RRIRERPPRLPRPRPRPICCPRP,-0.133
21,RRIRSRPPRLPRPRPRPSNYPRP,-0.869
22,RRIRKRPPRLPRPRPRPPNLPRP,0.492
23,RRIRGRPPRLPRPRPRPWWPPRP,0.404
24,RRIRLRPPRLPRPRPRPEVPPRP,0.0129
25,RRIRFRPPRLPRPRPRPLRTPRP,0.703

row,Sequence,shrunken log2 fold change
1,RRIRRRPPRLPRPRPRPCESPRP,0.0471
2,RRIRRRPPRLPRPRPRPDTTPRP,0.192
3,RRIRCRPPRLPRPRPRPTVKPRP,-0.286
4,RRIRCRPPRLPRPRPRPMNQPRP,-0.248
5,RRIRERPPRLPRPRPRPWVTPRP,-0.0915
6,RRIRCRPPRLPRPRPRPNLNPRP,-0.575
7,RRIRARPPRLPRPRPRPTTAPRP,0.514
8,RRIRARPPRLPRPRPRPHSLPRP,0.314
9,RRIRPRPPRLPRPRPRPQHHPRP,-0.302
10,RRIRHRPPRLPRPRPRPCFTPRP,-0.838
11,RRIRQRPPRLPRPRPRPAWWPRP,0.95
12,RRIRQRPPRLPRPRPRPSQTPRP,-0.083
13,RRIRHRPPRLPRPRPRPLWDPRP,-0.15
14,RRIRPRPPRLPRPRPRPSMYPRP,-0.676
15,RRIRVRPPRLPRPRPRPHEPPRP,-0.0412
16,RRIRLRPPRLPRPRPRPGWKPRP,-0.0726
17,RRIRSRPPRLPRPRPRPPNQPRP,0.134
18,RRIRWRPPRLPRPRPRPERKPRP,-0.0287
19,RRIRNRPPRLPRPRPRPDQPPRP,0.00646
20,RRIRRRPPRLPRPRPRPMTLPRP,-0.142
21,RRIRVRPPRLPRPRPRPQCCPRP,-0.185
22,RRIRNRPPRLPRPRPRPHFCPRP,-0.144
23,RRIRNRPPRLPRPRPRPREHPRP,0.0287
24,RRIRTRPPRLPRPRPRPPWGPRP,0.0724
25,RRIRPRPPRLPRPRPRPYNFPRP,-0.289

row,Sequence,shrunken log2 fold change
1,RRIRYRPPRLPRPRPRPYAQPRP,-1.36
2,RRIRYRPPRLPRPRPRPECCPRP,-0.0698
3,RRIRTRPPRLPRPRPRPFVYPRP,-0.639
4,RRIRGRPPRLPRPRPRPLYHPRP,3.13
5,RRIRKRPPRLPRPRPRPGPRPRP,1.08
6,RRIRHRPPRLPRPRPRPTTKPRP,0.00227
7,RRIRKRPPRLPRPRPRPSRCPRP,0.392
8,RRIRSRPPRLPRPRPRPFMAPRP,-0.497
9,RRIRVRPPRLPRPRPRPAVGPRP,0.186
10,RRIRQRPPRLPRPRPRPRDHPRP,0.423
11,RRIRIRPPRLPRPRPRPRSYPRP,-0.381
12,RRIRRRPPRLPRPRPRPMSLPRP,-0.0564
13,RRIRERPPRLPRPRPRPWNEPRP,-0.351
14,RRIRSRPPRLPRPRPRPGTYPRP,-1.16
15,RRIRTRPPRLPRPRPRPPSGPRP,0.467
16,RRIRTRPPRLPRPRPRPNRNPRP,-0.544
17,RRIRDRPPRLPRPRPRPESQPRP,-0.0206
18,RRIRNRPPRLPRPRPRPCWQPRP,-0.0118
19,RRIRHRPPRLPRPRPRPLDFPRP,-0.342
20,RRIRWRPPRLPRPRPRPVKYPRP,-0.632
21,RRIRTRPPRLPRPRPRPGNAPRP,-0.0554
22,RRIRPRPPRLPRPRPRPAKTPRP,-0.168
23,RRIRSRPPRLPRPRPRPEGRPRP,-0.0898
24,RRIRRRPPRLPRPRPRPFIHPRP,-0.18
25,RRIRTRPPRLPRPRPRPWFAPRP,0.0386

row,Sequence,shrunken log2 fold change
1,RRIRCRPPRLPRPRPRPPGPPRP,0.337
2,RRIRVRPPRLPRPRPRPKLTPRP,-0.0989
3,RRIRQRPPRLPRPRPRPVQTPRP,-0.0915
4,RRIRFRPPRLPRPRPRPKETPRP,-0.0433
5,RRIRGRPPRLPRPRPRPSMHPRP,0.421
6,RRIRRRPPRLPRPRPRPHICPRP,-0.0887
7,RRIRWRPPRLPRPRPRPPQIPRP,0.117
8,RRIRFRPPRLPRPRPRPEKKPRP,0.0265
9,RRIRGRPPRLPRPRPRPGEKPRP,1.4
10,RRIRIRPPRLPRPRPRPVLKPRP,-0.234
11,RRIRRRPPRLPRPRPRPFINPRP,-0.211
12,RRIRVRPPRLPRPRPRPACPPRP,0.311
13,RRIRMRPPRLPRPRPRPQLTPRP,0.743
14,RRIRLRPPRLPRPRPRPCSYPRP,-0.259
15,RRIRCRPPRLPRPRPRPFKIPRP,-0.6
16,RRIRLRPPRLPRPRPRPLYSPRP,-1.1
17,RRIRPRPPRLPRPRPRPVFYPRP,-0.316
18,RRIRSRPPRLPRPRPRPTSTPRP,-0.236
19,RRIRHRPPRLPRPRPRPWWHPRP,-0.113
20,RRIRLRPPRLPRPRPRPYWPPRP,-0.518
21,RRIRHRPPRLPRPRPRPTMDPRP,-0.179
22,RRIRLRPPRLPRPRPRPYHLPRP,-0.213
23,RRIRWRPPRLPRPRPRPTMWPRP,0.615
24,RRIRNRPPRLPRPRPRPHQWPRP,-0.0998
25,RRIRLRPPRLPRPRPRPNTHPRP,-0.473

row,Sequence,shrunken log2 fold change
1,RRIRQRPPRLPRPRPRPFCLPRP,-0.336
2,RRIRCRPPRLPRPRPRPGNNPRP,-0.47
3,RRIRFRPPRLPRPRPRPMFKPRP,-0.581
4,RRIRCRPPRLPRPRPRPENRPRP,-0.168
5,RRIRSRPPRLPRPRPRPWPCPRP,0.134
6,RRIRARPPRLPRPRPRPNKAPRP,0.00219
7,RRIRFRPPRLPRPRPRPQNCPRP,-0.195
8,RRIRCRPPRLPRPRPRPMIWPRP,-0.0837
9,RRIRYRPPRLPRPRPRPLNWPRP,-0.594
10,RRIRSRPPRLPRPRPRPWVWPRP,0.39
11,RRIRRRPPRLPRPRPRPYNYPRP,-0.501
12,RRIRHRPPRLPRPRPRPPLMPRP,-0.187
13,RRIRHRPPRLPRPRPRPLNIPRP,-0.386
14,RRIRGRPPRLPRPRPRPFHPPRP,-0.124
15,RRIRHRPPRLPRPRPRPEVNPRP,0.062
16,RRIRDRPPRLPRPRPRPKTPPRP,-0.00153
17,RRIRGRPPRLPRPRPRPKYPPRP,0.0365
18,RRIRWRPPRLPRPRPRPVRRPRP,0.365
19,RRIRVRPPRLPRPRPRPGCVPRP,0.267
20,RRIRFRPPRLPRPRPRPEFQPRP,0.0542
21,RRIRCRPPRLPRPRPRPFMTPRP,-0.737
22,RRIRARPPRLPRPRPRPWMYPRP,-0.794
23,RRIRRRPPRLPRPRPRPGPAPRP,0.562
24,RRIRDRPPRLPRPRPRPPIFPRP,-0.129
25,RRIRWRPPRLPRPRPRPNHMPRP,-0.227
